This is an account of results in paper PMC5342555, “ATAD2 is an epigenetic reader of newly synthesized histone marks during DNA replication” (Oncotarget, 2016).

The test system of this assay is HDAC1 binding to H4K5,12diac. The assay can be described thus: In vitro competition with HDAC1 for immobilized H4K5,12diac peptides (direct binding pull down). The following applies: increasing amount of ATAD2^342-1390 2 h, then 0.1 μM recombinant HDAC1 2 h; 1 μM immobilized peptide. On the procedure:
H4 peptides (1-25) conjugated with Biotin was immobilized on Streptavidin-coupled Dynabeads for 2 hours at 4 °C and incubated with nuclear extract from MCF7 cells. Nuclear extract was prepared by first isolating nucleus in hypotonic buffer (10 mM Tris-HCl pH 8.5, 10 mM NaCl, 0.5 mM TCEP and 0.1 % NP-40) and disrupting nuclear envelop in high salt buffer (20 mM Tris-HCl pH 8.5, 420 mM NaCl, 0.5 mM TCEP, 0.1 % Triton X-100, 25 % Glycerol) for 2 hours at 4 °C. Soluble nuclear extract was harvested by centrifugation at 20000 g for 20 min and diluted to 1:3 in buffer without NaCl in order to achieve physiological salt concentration, 140 mM. The nuclear extract was incubated with the immobilized peptides on the Streptavidin-Dynabeads overnight at 4 °C. Next day, the beads were washed three times with washing buffer (20 mM Tris-HCl pH 8.5, 140 mM NaCl, 0.5 mM TCEP, 0.1 % Triton X-100, 25 % Glycerol) and twice with high salt buffer. Bound proteins were recovered by boiling the beads in 1X sample buffer for 5 min. at 95 °C and analyzed by SDS-PAGE and Western Blotting. For direct binding experiments 1 μM of immobilized histone peptides on Streptavidin-Dynabeads were incubated with indicated amounts of ligands for 2 hours at 4 °C. After stringent washing as described above, bound proteins were analyzed in Western Blotting.

B1: ATAD2^342-1390: recombinant FLAG-tagged ATAD2 residues 342 to 1390, purified from Sf9 cells (protein)
chain: SPYCKRMNRRRHAIHSSDSTSSSSSEDEQHFERRRKRSRNRAINRCLPLNFRKDELKGIYKDRMKIGASLADVDPMQLDSSVRFDSVGGLSNHIAALKEMVVFPLLYPEVFEKFKIQPPRGCLFYGPPGTGKTLVARALANECSQGDKRVAFFMRKGADCLSKWVGESERQLRLLFDQAYQMRPSIIFFDEIDGLAPVRSSRQDQIHSSIVSTLLALMDGLDSRGEIVVIGATNRLDSIDPALRRPGRFDREFLFSLPDKEARKEILKIHTRDWNPKPLDTFLEELAENCVGYCGADIKSICAEAALCALRRRYPQIYTTSEKLQLDLSSINISAKDFEVAMQKMIPASQRAVTSPGQALSTVVKPLLQNTVDKILEALQRVFPHAEFRTNKTLDSDISCPLLESDLAYSDDDVPSVYENGLSQKSSHKAKDNFNFLHLNRNACYQPMSFRPRILIVGEPGFGQGSHLAPAVIHALEKFTVYTLDIPVLFGVSTTSPEETCAQVIREAKRTAPSIVYVPHIHVWWEIVGPTLKATFTTLLQNIPSFAPVLLLATSDKPHSALPEEVQELFIRDYGEIFNVQLPDKEERTKFFEDLILKQAAKPPISKKKAVLQALEVLPVAPPPEPRSLTAEEVKRLEEQEEDTFRELRIFLRNVTHRLAIDKRFRVFTKPVDPDEVPDYVTVIKQPMDLSSVISKIDLHKYLTVKDYLRDIDLICSNALEYNPDRDPGDRLIRHRACALRDTAYAIIKEELDEDFEQLCEEIQESRKKRGCSSSKYAPSYYHVMPKQNSTLVGDKRSDPEQNEKLKTPSTPVACSTPAQLKRKIRKKSNWYLGTIKKRRKISQAKDDSQNAIDHKIESDTEETQDTSVDHNETGNTGESSVEENEKQQNASESKLELRNNSNTCNIENELEDSRKTTACTELRDKIACNGDASSSQIIHISDENEGKEMCVLRMTRARRSQVEQQQLITVEKALAILSQPTPSLVVDHERLKNLLKTVVKKSQNYNIFQLENLYAVISQCIYRHRKDHDKTSLIQKMEQEVENFSCSR
For the molecule B1, the “competition with HDAC1 for binding to H4K5,12diac peptides” value is on record as “outcompeted”.
